Measured values as given in paper PMC6614843 (2019).

Key:
[1] = biological target: T1, Polβ(WT), purified recombinant (human, UniProt P06746 1-335); experiment: SPR; mean of repeats
[2] = biological target: T2, Polβ(T304I), purified recombinant (human, UniProt P06746 1-335, T304I); experiment: SPR; mean of repeats
[3] = biological target: T1, Polβ(WT), purified recombinant; experiment: SPR; representative experiment
[4] = biological target: T2, Polβ(T304I), purified recombinant; experiment: SPR; representative experiment

Kd [1]: 534 nM | Kd [2]: 3300 nM | Kd [3]: 358 nM | Kd [4]: 3650 nM
B1: NTD-XRCC1(1-151)-His (domain or fragment)
chain: MPEIRLRHVVSCSSQDSTHCAENLLKADTYRKWRAAKAGEKTISVVLQLEKEEQIHSVDIGNDGSAFVEVLVGSSAGGAGEQDYEVLLVTSSFMSPSESRSGSNPNRVRMFGPDKLVRAAAEKRWDRVKIVCSQPYSKDSPFGLSFVRFHS
